# B1: C.Esp1396I (natural protein)
# chain: MESFLLSKVSFVIKKIRLEKGMTQEDLAYKSNLDRTYISGIERNSRNLTIKSLELIMKGLEVSDVVFFEMLIKEILKHD
# notes: C.Esp1396I, bacterial helix-turn-helix controller protein of a restriction-modification system; native protein; protein chains A-D of the deposited entries; also called C-protein; controller C-protein; source: expression and purification as described earlier (McGeehan et al., 2008); pure protein
# Target: the molecule itself
# Assay: crystal structure; C.Esp1396I (0.7 mg/ml) mixed with 35 bp dsDNA at 4:1 molar ratio; sitting-drop vapour diffusion at 293 K, 50 mM MES pH 7.5, 25% MPD, 40 mM MgCl2; data at 100 K, space group P6(5), 2.8 A; eight datasets of increasing dose from one crystal
protein,measurement,value
B1,stoichiometry N,4
